Columns and labels:
FOXK2(228-382) [1] = molecular target: T1, FOXK2(228-382) (UniProt Q01167 228-382); assay: EMSA; competition; labelled WT probe; unlabelled WT competitor 25-200x; EMSA: 75 mM KCl, room temperature 30 min, 5% PAGE in 0.25x TBE at 4 C; pull-down conditions not in material; conditions: protein: recombinant; tags: 6xHis; label: radioactive label (probe); 5' overhang 4 nt at both ends
FOXO3(130-271) [2] = molecular target: T2, FOXO3(130-271) (UniProt O43524 130-271); assay: as above; conditions: protein: recombinant; tags: 6xHis; label: radioactive label (probe); 5' overhang 4 nt at both ends
FOXK2(228-382) [3] = molecular target: T1, FOXK2(228-382); assay: competition; unlabelled competitor 25-200x; competes equally to WT; EMSA: 75 mM KCl, room temperature 30 min, 5% PAGE in 0.25x TBE at 4 C; pull-down conditions not in material; conditions: protein: recombinant; tags: 6xHis; 5' overhang 4 nt at both ends
FOXO3(130-271) [4] = molecular target: T2, FOXO3(130-271); assay: as above; conditions: protein: recombinant; tags: 6xHis; 5' overhang 4 nt at both ends

T2 sequence (O43524 130-271): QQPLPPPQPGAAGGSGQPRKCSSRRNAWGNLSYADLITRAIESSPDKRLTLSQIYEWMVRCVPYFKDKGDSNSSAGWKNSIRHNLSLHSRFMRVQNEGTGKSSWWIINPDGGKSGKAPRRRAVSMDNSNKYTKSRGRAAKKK
T1 sequence (Q01167 228-382): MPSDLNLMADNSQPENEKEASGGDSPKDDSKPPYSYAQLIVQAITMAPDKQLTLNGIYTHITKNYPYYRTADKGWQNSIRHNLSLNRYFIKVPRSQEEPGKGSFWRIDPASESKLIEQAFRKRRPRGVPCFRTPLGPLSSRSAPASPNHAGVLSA

B1: CYP27C1 WT (ADS2782/ADS2783) (dsDNA)
DNA 1: CTAGAACATGTTAATGTAAACAAGGAAGCCTG
DNA 2: CTAGCAGGCTTCCTTGTTTACATTAACATGTT
B1: binds (FOXK2(228-382) [1]); binds (FOXO3(130-271) [2]).

B2: CYP27C1mut2 (ADS3739/ADS3740) (dsDNA)
DNA 1: CTAGAACATGTTAATGTAAACAGAGAAGCCTG
DNA 2: CTAGCAGGCTTCTCTGTTTACATTAACATGTT
B2: binds (FOXK2(228-382) [3]); binds (FOXO3(130-271) [4]).

B3: CYP27C1mut1 (ADS3737/ADS3738) (dsDNA)
DNA 1: CTAGAACATGTTAGGGTAAACAAGGAAGCCTG
DNA 2: CTAGCAGGCTTCCTTGTTTACCCTAACATGTT
B3: binds (FOXO3(130-271) [4]).

Source: article PMC4770209, “Genome-wide binding studies reveal DNA binding specificity mechanisms and functional interplay amongst Forkhead transcription factors”
